According to patent US20210395394A1:
Changes are numbered by the printed parent chain.

B1: anti-Pan-PLDH 9G7 monoclonal antibody (antibody, mouse IgG2b, kappa, V domains shown)
VH: QVQLQQPGAELVRPGASVKLSCKASGSSFTNYFMNWVKQRPGQGLEWIGMINPSESETRINQKFKDKATLTVDKSSSTAYMQLSSLTAEDSAVYYCAKSGDFYTSYWDYWGQGTTLTVSS
VL: DIQLTQSPASLSASVGETVTITCRGSGNLHNYIAWYQQKQGKSPQLLVYNARTIADGVPSRFSGSGSGTQYSLKINSLQPEDFGSYYCQSFWSSYTFGGGTKLEIKR
B2: Mutation 1 (antibody, mouse IgG2b, kappa, V domains shown)
VH: B1 VH with F33W, N52H, W107F
VL: B1 VL with I33L, S94T

What was measured:
[1] = target: Pan-species-specific antigen Plasmodium Lactate DeHydrogenase (Pan-PLDH) protein; assay: indirect ELISA, recombinant MA protein coated 1 ug/ml, antibody 1.6 ng/ml
[2] = target: Pan-species-specific antigen Plasmodium Lactate DeHydrogenase (Pan-PLDH) protein; assay: indirect ELISA, recombinant MA protein coated 1 ug/ml, antibody 0.32 ng/ml
[3] = target: Pan-species-specific antigen Plasmodium Lactate DeHydrogenase (Pan-PLDH) protein; assay: indirect ELISA, recombinant MA protein coated 1 ug/ml, antibody 40 ng/ml
[4] = target: Pan-species-specific antigen Plasmodium Lactate DeHydrogenase (Pan-PLDH) protein; assay: indirect ELISA, recombinant MA protein coated 1 ug/ml, antibody 0 ng/ml (blank)
[5] = target: Pan-species-specific antigen Plasmodium Lactate DeHydrogenase (Pan-PLDH) protein; assay: indirect ELISA, recombinant MA protein coated 1 ug/ml, antibody 1000 ng/ml
[6] = target: Pan-species-specific antigen Plasmodium Lactate DeHydrogenase (Pan-PLDH) protein; assay: indirect ELISA at four coating concentrations, KD calculated from half-maximal OD
[7] = target: Pan-species-specific antigen Plasmodium Lactate DeHydrogenase (Pan-PLDH) protein; assay: indirect ELISA, recombinant MA protein coated 1 ug/ml, antibody 8 ng/ml
[8] = target: Pan-species-specific antigen Plasmodium Lactate DeHydrogenase (Pan-PLDH) protein; assay: indirect ELISA, recombinant MA protein coated 1 ug/ml, antibody 200 ng/ml

| Binder | OD value at 450 nm (refer to 630 nm) [1] [OD] | OD value at 450 nm (refer to 630 nm) [2] [OD] | OD value at 450 nm (refer to 630 nm) [3] [OD] | OD value at 450 nm (refer to 630 nm) [4] [OD] | OD value at 450 nm (refer to 630 nm) [5] [OD] | Kd [6] [nM] | OD value at 450 nm (refer to 630 nm) [7] [OD] | OD value at 450 nm (refer to 630 nm) [8] [OD] |
| --- | --- | --- | --- | --- | --- | --- | --- | --- |
| B1 | 0.205 | 0.173 | 1.43 | 0.072 | 1.94 | 0.887 | 0.635 | 1.82 |
| B2 | 0.339 | 0.27 | 2.02 | 0.06 | 2.26 | 0.412 | 1.1 | 2.19 |
